From doi:10.1101/2025.03.09.642192 (2025) come the findings set out here.

A word on the koff: it is the rate constant with which the complex falls apart. Low values mean a long-lived complex, high ones a short-lived complex.

For test [1], the target named is T1, purified hexon protein from ChAdOx1 (chimpanzee adenovirus Y25 (ChAdOx1)).
T1 chain: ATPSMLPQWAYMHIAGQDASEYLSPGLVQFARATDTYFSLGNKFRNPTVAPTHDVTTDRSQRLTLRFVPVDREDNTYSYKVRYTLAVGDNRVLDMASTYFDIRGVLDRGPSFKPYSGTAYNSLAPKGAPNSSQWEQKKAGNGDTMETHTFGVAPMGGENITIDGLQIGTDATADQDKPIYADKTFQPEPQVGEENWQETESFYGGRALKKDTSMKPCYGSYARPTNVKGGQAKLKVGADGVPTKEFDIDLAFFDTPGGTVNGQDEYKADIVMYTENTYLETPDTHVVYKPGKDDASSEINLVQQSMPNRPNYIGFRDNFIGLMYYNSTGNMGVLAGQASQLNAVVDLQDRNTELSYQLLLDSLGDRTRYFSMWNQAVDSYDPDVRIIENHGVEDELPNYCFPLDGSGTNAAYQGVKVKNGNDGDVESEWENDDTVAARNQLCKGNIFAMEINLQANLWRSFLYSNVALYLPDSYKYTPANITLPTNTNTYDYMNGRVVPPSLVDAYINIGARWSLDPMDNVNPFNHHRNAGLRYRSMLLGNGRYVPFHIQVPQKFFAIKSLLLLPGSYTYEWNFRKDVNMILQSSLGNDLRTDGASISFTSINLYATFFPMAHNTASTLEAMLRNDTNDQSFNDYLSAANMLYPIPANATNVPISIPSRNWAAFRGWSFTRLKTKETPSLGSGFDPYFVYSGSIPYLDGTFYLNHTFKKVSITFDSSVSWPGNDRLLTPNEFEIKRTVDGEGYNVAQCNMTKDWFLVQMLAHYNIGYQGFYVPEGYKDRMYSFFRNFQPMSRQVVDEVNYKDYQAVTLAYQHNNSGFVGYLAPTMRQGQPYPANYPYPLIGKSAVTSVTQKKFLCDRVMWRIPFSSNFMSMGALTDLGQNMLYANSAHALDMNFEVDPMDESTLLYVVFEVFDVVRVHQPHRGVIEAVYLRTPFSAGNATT
In words: SPR. For orientation: SPR reads the build-up and loss of mass on a sensor chip optically.

The next test has as its target T2, HAdV-C5 hexon protein (HAdV-C5, UniProt P04133 1-952).
T2 chain: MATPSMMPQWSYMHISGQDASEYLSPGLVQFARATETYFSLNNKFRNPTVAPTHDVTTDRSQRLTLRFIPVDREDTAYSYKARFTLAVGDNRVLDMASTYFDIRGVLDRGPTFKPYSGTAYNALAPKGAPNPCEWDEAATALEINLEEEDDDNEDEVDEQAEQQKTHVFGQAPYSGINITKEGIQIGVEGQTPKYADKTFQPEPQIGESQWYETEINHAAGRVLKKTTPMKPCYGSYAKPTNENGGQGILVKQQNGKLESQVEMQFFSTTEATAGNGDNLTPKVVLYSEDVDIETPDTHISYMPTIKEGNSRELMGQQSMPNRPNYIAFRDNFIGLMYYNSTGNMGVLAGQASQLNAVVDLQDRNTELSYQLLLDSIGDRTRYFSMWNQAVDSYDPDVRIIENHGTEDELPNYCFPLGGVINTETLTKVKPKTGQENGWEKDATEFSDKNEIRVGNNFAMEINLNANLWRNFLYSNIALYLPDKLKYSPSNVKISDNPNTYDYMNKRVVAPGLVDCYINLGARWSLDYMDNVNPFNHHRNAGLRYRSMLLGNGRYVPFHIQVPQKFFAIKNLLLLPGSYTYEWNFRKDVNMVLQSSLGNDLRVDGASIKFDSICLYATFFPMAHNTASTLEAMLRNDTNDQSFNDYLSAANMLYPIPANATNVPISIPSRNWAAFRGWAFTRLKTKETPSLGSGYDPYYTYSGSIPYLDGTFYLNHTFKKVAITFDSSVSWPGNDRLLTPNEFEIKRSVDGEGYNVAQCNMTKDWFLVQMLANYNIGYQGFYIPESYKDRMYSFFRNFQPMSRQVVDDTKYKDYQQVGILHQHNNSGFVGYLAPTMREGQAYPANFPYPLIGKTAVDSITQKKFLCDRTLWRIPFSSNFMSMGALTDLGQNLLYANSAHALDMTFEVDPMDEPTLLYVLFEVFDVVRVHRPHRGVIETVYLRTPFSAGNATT
Briefly: SPR.

B1: platelet factor 4 (PF4) (natural protein)
chain: EAEEDGDLQCLCVKTTSQVRPRHITSLEVIKAGPHCPTAQLIATLKNGRKICLDLQAPLYKKIIKKLLES
With B1, the koff in test [1] was determined as 0.0106 s⁻¹; with HAdV-C5 hexon protein, 0.0213 s⁻¹.
